According to patent US20250235548A1, “ANTIBODY-DRUG CONJUGATES TARGETING NAPI2B AND METHODS OF USE” (Zymeworks BC Inc., priority 2022, published 2025):
Entries after “also recorded” stand apart in the source; their conditions may differ.

Tested on: NaPi2b-negative EBC-1 cells
Test: Bystander activity, EBC-1 mono-culture vs co-culture with HCC-78 (Examples 19 and 34)
Assay type: cell-based
Details: for bystander activity (in words): 5 nM test article; for bystander activity (in words) / Average EBC-1 % viability in co-culture / Average EBC-1 % viability in mono-culture: 4 days
Procedure: The ability of v29456 ADCs to exert a bystander killing effect on cancer cells was assessed according to the method described below. Bystander killing can occur after target-specific uptake of an ADC into an antigen-positive cell. In this case, catabolism of the ADC results in release of payload or an active catabolite, which then crosses the cell membrane of nearby cells to elicit their death.
Cell lines used were HCC-78 (high NaPi2b expression) and EBC-1 (negative NaPi2b expression).
(§1) NaPi2b-positive HCC-78 and NaPi2b-negative EBC-1 cells were seeded either as mono-cultures or co-cultures in a 48-well plate at 15,000 cells and 5,000 cells, respectively, in 100 μL assay media (RPMI1640+10% FBS). ADCs were diluted to 10 nM in assay media and 100 μL was added to the cell-containing plates (5 nM final ADC concentration). Cells were incubated with ADCs for 4 days under standard culturing conditions (37° C./5% CO2). […] After incubation, cells were washed in FACS buffer, resuspended in 70 μL FACS buffer per well, and 35 μL per well were analyzed on a BD LSRFortessa™ Cell Analyzer (BD Biosciences, Franklin Lake, NJ). Dead cells were excluded by gating on YO—PRO®-1 staining. The number of HCC-78 and EBC-1 cells were determined by the number of events in the Alexa Fluor®647 positive (NaPi2b-positive) and Alexa Fluor®647 negative (NaPi2b-negative) gates, respectively. Percent viability was calculated as the number of cells in treatment condition divided by the number of cells in the no-treatment condition.
(§2) Bystander effect was calculated by comparing the viability of NaPi2b-negative EBC-1 cells treated as mono-culture (black bars) with that of the cells treated as a co-culture with NaPi2b-positive HCC-78 cells (grey bars). A greater decrease in viability in co-culture compared with mono-culture indicated a greater bystander effect.
Bystander killing can occur after target-specific uptake of an ADC into an antigen-positive cell, as described in Example 19. Cell lines used were HCC-78 (high NaPi2b expression) and EBC-1 (negative NaPi2b expression). Surface NaPi2b expression for these cell lines were measured as described in Example 15.
[…] […] The human antibody variant v29456 conjugated to MC-GGFG-AM-DXd1 was included as a positive control.
as §1, with “Briefly, NaPi2b-positive HCC-78” for “NaPi2b-positive HCC-78”, “10 nM or 40 nM in assay” for “10 nM in assay”, “plates (5 nM or 20 nM final” for “plates (5 nM final”, “resuspended in 60 μL FACS” for “resuspended in 70 μL FACS”, “cells in each treatment condition” for “cells in treatment condition”
as §2, with “indicates” for “indicated”

palivizumab MC-GGFG-AM-DXd1: "palivizumab (v22277) MC-GGFG-AM-DXd1", negative control
bystander activity (in words): negative bystander activity; also recorded: negligible bystander activity

palivizumab MCvcPABC-MMAE: "palivizumab (v22277) MCvcPABC-MMAE", negative control
bystander activity (in words): negative bystander activity; also recorded: negligible bystander activity

v22277-MCvcPABC-MMAE: negative (non-NaPi2b targeting) controls palivizumab (v22277) MC-GGFG-AM-DXd and palivizumab (v22277) MCvcPABC-MMAE
Average EBC-1 % viability in co-culture (5 nM ADC, co-culture with NaPi2b-positive HCC-78, relative to untreated blank): 95.8% | Average EBC-1 % viability in mono-culture (5 nM ADC, relative to untreated blank): 86.4% | % Bystander activity (5 nM ADC, viability in mono-culture compared with co-culture): −9.4% | % Bystander activity (5 nM, Biological Replicate 1): 7.5% | Average EBC-1 % viability in co-culture (5 nM, Biological Replicate 1, co-culture with HCC-78, relative to untreated blank): 81.7% | Average EBC-1 % viability in mono-culture (5 nM, Biological Replicate 1, relative to untreated blank): 89.2% | % Bystander activity (20 nM, Biological Replicate 1): 7.4% | Average EBC-1 % viability in co-culture (20 nM, Biological Replicate 1, co-culture with HCC-78, relative to untreated blank): 84.1% | Average EBC-1 % viability in mono-culture (20 nM, Biological Replicate 1, relative to untreated blank): 91.5%
